Experimental data published in patent US20240052065A1 (Boehringer Ingelheim, published 2024).
Residue numbers refer to the chain shown, from its start.

Assays:
[1] = target: T1, recombinant human CDH3 [EC2-EC3] (human, UniProt P22223 216-440, limits assumed); test: SPR (ProteOn XPR36), bispecific captured on protein A/G, CDH3 EC2-EC3 as analyte
T1 construct: no separate entry is named for EC3; also called HuCDH3_EC2-EC3; EC2-EC3 peptide

[2] = target: T2, recombinant human CDH3, full-length (human, UniProt P22223 108-654, limits assumed); test: SPR (ProteOn XPR36), bispecific captured on protein A/G, CDH3 as analyte, 1:1 Langmuir fit
T2 construct: also called HuCDH3 full-length; human full-length CDH3
Protocol: (§1) The binding affinity of purified CDH3/TRAILR2 bispecific constructs for recombinant human CDH3 (either full-length, EC1-EC2 or EC2-EC3) was determined by Surface Plasmon Resonance (SPR), using a ProteOn XPR36 instrument (Bio-Rad). The running buffer and all dilutions (except where stated) were done in PBS-TEDTA. The GLM sensor chip (Bio-Rad) was normalized and pre-conditioned as per the manufacturers recommendations. The sensor chip was activated with equal mixture of EDC/s-NHS in the horizontal direction for 300 sec at a flow rate of 30 μl/min and immobilized with protein A/G (60 μg/ml in 10 mM acetate pH 4.5) in the horizontal direction for 300 sec at a flowrate of 30 μl/min resulting in 5000 RU of protein A/G on the surface. The sensor chip was deactivated with 1 M ethanolamine HCl in the horizontal direction for 300 sec at a flowrate of 30 μl/min.
(§2) For binding kinetic determination to CDH3, bispecific molecules were captured individually on the protein A/G surface vertically for 150 sec at a flowrate of 30 μl/min. The baseline was stabilized by injecting PBS-T-EDTA for 60 sec at a flowrate of 100 μl/min horizontally. The analyte (human full-length CDH3, CDH3 [EC1-EC2] or CDH3 [EC2-EC3]) was injected horizontally over the captured antibody for 300 sec at a flowrate of 30 μl/min and a dissociation for 1200 sec. The concentration of the analytes injected was 200 nM for the full-length CDH3 and 500 nM for EC1-EC2 and EC2-EC3.

[3] = target: T3, recombinant human CDH3 [EC1-EC2] (human, UniProt P22223 108-328, limits assumed); test: as above
T3 construct: also called HuCDH3 EC1-EC2
Protocol: as §1, §2

B1: bispecific binding molecule CDH3/TRAILR2v2 (bispecific antibody, human IgG1, kappa, L234A L235A)
heavy: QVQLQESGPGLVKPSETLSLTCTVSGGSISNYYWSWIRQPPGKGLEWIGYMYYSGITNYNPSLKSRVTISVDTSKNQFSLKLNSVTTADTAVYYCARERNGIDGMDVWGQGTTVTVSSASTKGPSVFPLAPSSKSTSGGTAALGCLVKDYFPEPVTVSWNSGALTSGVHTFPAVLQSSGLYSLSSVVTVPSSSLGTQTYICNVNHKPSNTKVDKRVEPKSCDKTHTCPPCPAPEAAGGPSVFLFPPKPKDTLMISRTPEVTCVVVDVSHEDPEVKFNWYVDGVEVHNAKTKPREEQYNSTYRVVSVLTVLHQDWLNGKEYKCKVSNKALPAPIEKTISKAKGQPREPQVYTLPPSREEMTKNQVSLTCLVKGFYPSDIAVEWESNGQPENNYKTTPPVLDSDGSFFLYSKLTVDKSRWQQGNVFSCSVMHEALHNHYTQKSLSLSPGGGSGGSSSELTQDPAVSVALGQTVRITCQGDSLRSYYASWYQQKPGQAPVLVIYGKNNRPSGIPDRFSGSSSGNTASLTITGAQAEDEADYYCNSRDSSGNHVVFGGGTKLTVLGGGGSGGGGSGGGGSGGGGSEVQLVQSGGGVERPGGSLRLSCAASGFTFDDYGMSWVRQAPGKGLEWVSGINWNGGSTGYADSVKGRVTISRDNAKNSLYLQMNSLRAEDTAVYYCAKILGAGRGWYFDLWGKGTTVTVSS
light: DIVMTQSPLSLPVTPGEPASISCRSSQSLLHSYGYNYLDWYLQKPGQSPQLLIYLGSNRASGVPDRFSGSGSGTDFTLKISRVEAEDFGIYYCMQALQTPITFGQGTRLEIKRTVAAPSVFIFPPSDEQLKSGTASVVCLLNNFYPREAKVQWKVDNALQSGNSQESVTEQDSKDSTYSLSSTLTLSKADYEKHKVYACEVTHQGLSSPVTKSFNRGEC
notes: also called CDH3/TR2v2
- binding result [1]: no binding (tested: 500 nM analyte)
- Kd [2]: 9.93 nM
- Kd [3]: 11.4 nM

B2: bispecific binding molecule CDH3/TRAILR2v3 (bispecific antibody, human IgG1, kappa, L234A L235A)
heavy: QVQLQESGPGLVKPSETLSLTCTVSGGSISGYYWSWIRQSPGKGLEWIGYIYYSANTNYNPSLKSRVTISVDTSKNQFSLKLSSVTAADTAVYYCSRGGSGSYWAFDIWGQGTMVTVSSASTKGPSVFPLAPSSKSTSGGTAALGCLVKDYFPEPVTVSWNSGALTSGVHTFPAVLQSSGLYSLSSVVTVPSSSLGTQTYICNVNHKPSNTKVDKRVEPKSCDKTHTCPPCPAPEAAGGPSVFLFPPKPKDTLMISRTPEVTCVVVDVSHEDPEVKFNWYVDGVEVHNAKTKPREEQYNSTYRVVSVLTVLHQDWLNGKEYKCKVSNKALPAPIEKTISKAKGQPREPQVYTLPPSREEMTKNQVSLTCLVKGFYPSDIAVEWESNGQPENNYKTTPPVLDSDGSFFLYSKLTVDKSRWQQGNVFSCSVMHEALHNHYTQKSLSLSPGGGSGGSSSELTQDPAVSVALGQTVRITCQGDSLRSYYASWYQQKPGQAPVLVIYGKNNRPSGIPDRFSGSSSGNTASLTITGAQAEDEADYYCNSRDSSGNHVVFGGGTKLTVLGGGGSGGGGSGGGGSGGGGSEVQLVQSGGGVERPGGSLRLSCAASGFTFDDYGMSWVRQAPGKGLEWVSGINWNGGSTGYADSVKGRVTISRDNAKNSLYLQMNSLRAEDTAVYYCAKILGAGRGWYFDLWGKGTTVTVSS
light: B1 light with L30M, H31Y, F88V, I101P, R108K, L109V
notes: also called CDH3/TR2v3
- binding result [1]: no binding (tested: 500 nM analyte)
- Kd [2]: 1.08 nM
- Kd [3]: 0.85 nM
